The text below walks through data of the NTF2 design screens of Basanta et al. (2020).

This data set is described as follows: protease stability score; higher = more stable; yeast display proteolysis, trypsin and chymotrypsin.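 Further: relative to predicted unfolded state with 0 unfolded-like and 1 meaning tenfold more protease.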
Consider “DEREELIQRFLEMLIHLYLTGDEDWFLRMADPNARLHWNGKDRHGREIILEELIRLLRRFDHVRIDVKKFEVQGDKVIADGLEIYTQGDKRIEVDTKIVLTTVNGKLKTLVWHID”, for which the protease stability score was 0.642. “DEREELLRRWTEEFLDVFHTGDPKETMDMVDPHARIIVIINGRTIEDHGWEHVKILLEQIRVHDFHLTDVRVVNGKVRIDGRYDGYVNGQRVDHHVIIINVVVDGRTHTLLIEIR” registered a protease stability score of 0.804. Consider “DEREELSKHITERFIRSVQTGDERVLKELIDPHARVIVDGRRFIGRHVWVKILKDLGIDHLEIEHVDLIGDKARIDSRVDVDGQEHNVKIHLEVINGRIHWIEERIK”, for which the protease stability score stood at 1.04.

Sequence “DEREELVTRFWKFFVEASRTGDWRKLEDRADPHVRLHIDGVDLHGREEFAEEHRRHLKKFKNVKIHYEIHDMDIQGEKVHVDYRIRLDIGDKRTENIIRMDIVKIDGKWLIQEMHVD” registered a protease stability score of 0.89. “DEREEMSRHMINLWNRHLETGDEDRISKLADPHVKVTNEDEEHVGRESAERFVRLMGFDHVHLHDIHIQGNKVISTVEIRIDGQTYQSDVVALKVDGKWKVKNVHIH”: the protease stability score stood at 0.711. For the sequence “DEREEMVERFLTEWLRSLVTGDWEDSEKLFDPNVRIHVNGREFHGRHEAIKHFHELRIHKIELKSIDIQGNKAHVDVEVDGNVNGQNRIIKVNLFFKKVNGRWYFEQVEIH”, the protease stability score turned out to be 1.24. The result for “DEREERNKQISELLWHALLTGNWEMLQHLADPHVRVDINGVDLHGRELLVKHLKKFGVDHSRHHDLEIQGEKLIIRGEVEVNGKRIDVEIRIEVIDGKVKHVEVHEN” reads 1.24. Turning to “DEREERSRHQMEWLWHLMITGDERLLEELADPHAKIEVGDKDFHGRHTLIEIIREHLQRVKNVRLEFREIEIQGDKIIIRGKLHIGDKEKDIIVIIVVVNGRLKSFKLEVH”, the protease stability score turned out to be 1.19. Take “DEREEWVERIERRLKEAIRTGDEHTLSKNMDPDAKLDINGVDLIGWERVIDFLRELRKELGVDKIHFRVESRRIIGDKAELDTRLHVNGKHHDTHVIIEKFNGVWSIHSLHVR”: the protease stability score is 1.15. In the case of “DEREHDLRRAVHIHRELMMTGDESNFLSYADPNTRLEVDGQEVVGREEVFKWITNVLSRHGVELKDIRVKTMDHQGNKLILHVEIRTRIGEKDTSVDFTLVVEKVNGRWVLHSLEIH”, the protease stability score was 0.16. For “DEREHSVKLAFDKFLEDLHTGNEEMLDRFLDPHVRYHVGDKERHGRENFSRHVAKFLTEYGFKHLHLHMKDWEVQGDKATIEGHVNMHFNGRLIRHNTHLVIWKVNGRWLLESSEER”, the protease stability score was determined as 0.699.

Consider “DEREKDVEHWFQRLIEAQITGDEEEFDELADPNVLIEINGRELHGRDDFHKYLKRVDHFEIQHFRHHHRHIFDGKVYFNGHSELHVTVGDKRFRYEDEIHHISLKIDGRWILKSVHFA”, for which the protease stability score turned out to be 0.635. For “DEREKEAKTLHQEWFRALQTGNEKRLHELLDPHVRSDVNGVKLHGRHALIKFLVKWLRQIDHNERLEIHDIRFQGDKSEEDVRVVVHIDGRRIDYETHVHLDIYDGVIREVEIDIK”, the protease stability score was determined as 1.18. With “DEREKEALDIAREVLHNIMTGDWERLSQLLDPNTRFHEHWNGVHIDLHGRETVSHLLFRHVKHIRIEHVHLEDMVVIGEKAIIHSRRHIEIDGKHMTHHVLLYLLVIDGKIKDVRLHLE”, the protease stability score was found to be 0.869.

In the case of “DEREKEHETQIRLLIHAIQTGDESMFHKMMDPNVRIQVGDKHIHGREFFVEIFKKLIDRYPGIQLHIRIHSIRFQGEKVTIDERLEIIVGDKEMRFETEIFSQKVNGRWLIEFERIQ”, the protease stability score amounted to 0.579.

“DEREKELERIARELLKALYTGDEDILDKLVDPNVRLELDIDGKTNDIHGMENWFRFYETQWKKLGVDVYDIKDMDVWNGKITINSRVEVNGRYIDTRLILVVIDGRMHEIHIKEK”: the protease stability score amounted to 1.23. For the sequence “DEREKETERMLELFIKVLLTGNEHDLMKLADPHVKLDINGREIHGREHLEEMWRHLWIDDSKRREVRNVGEWSHIYGETDGTFNGKKVRDTVEIRLYIVNGKAHRIYIIER”, the protease stability score is 0.655. Next, “DEREKFAEEIMEIFIRDVLTGDFDSLHKLIDPNTKIDLHIGDKIRPLHGREEFVKWVKEMRIHRWDITDMKVIGDKAHIDTTVDGEFNGRRTRFRQIINLDMVNGRLREIQITIG”: 2.2; “DEREKFLEEMVEEWFRNWVTGDEDRFEELADPDVRFHIGDKDSHGREAFEELMKRMGFKYKHIELHDVHIQGDKSHIDGHVQGQVNGQERDSHVHLDLVVVNGRLRTMEVRFR”: 1.44. With “DEREKHAKDFFDILLHLLLTGDWDKIIRMADPDVKLEIGDKRFHGMEHISETWLKRFTRLGVDHQHFHLHTVKFINGVATIHGRQHLHVGDKTIDLEVIIYVEKIDGRWILNNIEVR”, the protease stability score came to 1.11. As to “DEREKLAKKFLELFLHYIETGDEEVLRKLLDPSTRLEVNGRDNHGWKMFIWLLRELRIHRVHMELKVTDIQGDYVRNEGRLRSDVEYGDKRFETEYMVIIFLEKVDGRWHLHSFEVD”, the protease stability score came out at 1.56. “DEREKREEEVLKIIIEITETGDWRIFMELADPHVKLDIGDKDMHGMEEAERLWELMHKLLGINHIRFRHLRIQGDKVDMEFNVTIGDKQVDTRRHVITVDGRLHEVHEEFK”: the protease stability score worked out at 0.399. Sequence “DEREKRLKDIALIVMHLLLTGDEERFHELFDPDTKMTLIFNGQIETSHGMEEVRELLRYWLEEIRIEHYHLTEIHLIGDKTHVHGELVGEVNGKRFKTHIHITIVVIDGKVHSVEFELR” gave a protease stability score of 1.77. Next, “DEREKRWRKLHQDILEAIWTGDEETFLRLADPDMRFYLIVNGRTVDLHGMELASVVLHERRKRFKNATWHLKSERVQGNYSELNEELIVGDKTYDIRINLVHIDGKLHSVVIEDI”: 1.01. As for “DEREQEAHRAIEKFMHYVRTGNEDKLKEFLDPNALNLFDGRHDVGREDVTESMIEIMRHLGVTLHDVKITDMRTQGDYLTVNGWFNLEYDGVRDNHKVFIHSRKVDGKWIITKIDWR”, the protease stability score is 1.26. As to “DERERDAEDALDELREIWRTGDWELIHQMLDPEVRLDINGVRLVGREHWVDEVRRLFHKVPGMTYHLKDVHFQGNKMHVDILSRYDGRESKVDLILLKINGKWLNKEVRIREE”, the protease stability score stood at 0.807. Next, “DERERDARIYFHLLLHVIMTGNEEDLERFMDPHARIQIGDKMVHGRENVYHELLRIAREMRLHHSHIHEIRVIDGRVILKGHLDLEVGDKRELVDVEWIVIKVNGKWIFHSVHFR”: 2.53; “DERERDARKAVKDFIESIRTGDEDEIEKLLDPHVRVDAPNHERHGREEVVEELREMRIEIRDVRFRHIHVQGNKIEVHVRVHGSLMINGREYRIDTTMIIIMEKIDGRWILTHIEEK”: 1.62. In the case of “DERERDIREWMRIYIEMWETGDEDKLLTMIDPHYREETENEDIHGREQAHKKIKDIKERADHLHIRVHDVDIIDGVAVLDVEILIIIGDKVIRVRTTIIMRKINGKWFIERVHIK”, the protease stability score stood at 0.235.

With “DERERELKQALDLFKDIIKTGDEEALTRLIDPNAKMRVNGQDIHGWHHFILMMIRIYLHMGIKHIIDHRLHIQGDYLHLDTEVHVDGRSIRYHIVLFKFDGRWHLESSSSI”, the protease stability score is 1.6. Consider “DERERIAEEILRRIAKLMETGDENEMEHLMDPNVRLVFNGVRLHGMEDWEREMRRFDHIKIHTNEIQHIRLQGEKVDNDVRVDLLYHQGDKSWKIDTRTHYHFQKVNGKWIVREIIIE”, for which the protease stability score turned out to be 1.39. As to “DERERLLLEWARKFMENLITGNEELLKEMHDPHYRSHIGDKDLVGREVHHEFWEKHFRHWRIEKFDVRDYHTQGDKARLVVRIVIDVDGRRIDTEIHIHYDIIDGQLRLVTLQYE”, the protease stability score is 1.5. Turning to “DERESFIKEVMEQFNRDLLTGDEEHFKERADPDVKIIFDGRETHGWKVLHHLLREIRIRHMHIDDYDIQGDKARVHSTADVEYGDKEDELKIEIRLVVINGRLKEVSIIFR”, the protease stability score was determined as 1.16. Consider “DERESLLEKLLRLWIELLKTGDEDTMLKLADPDAKYHVNGKDFHGWELASRIWFEERERLGIKHVHDHEIRFQGEKTELHGILLFDGVDVKFRIIIIVFNGRLHHVIVERD”, for which the protease stability score was 1.53. Consider “DERFELFDWVVRLILHAHHTGDERIIHELADPNVRYIINGVTVHGRELMYRLAHEHLREIWVHHVQVRHFDVVGDFFRVEMEVVGLVNGVHYNEHRRLHLYVVNGRLKSSRIEIE”, for which the protease stability score stood at 1.03. “DERHDDRNHAIEAFKFMLDTGDWRVYSRNIDPNMRLEIGDKTFHGREELEHHITQIDHHHTHTLTIEHIDRVGDFVDIHITLSVTVIFDGRNETKTFHVDIHLVKIDGKWLIHKESVK” gave a protease stability score of 0.545.

In turn, “DERHDDSRDLAHIFLHLLHTGDEDTIQEYLDPNAKYTLNINGVRVIMHGRETITRHWKEWLDKFKNATIHINDSTVQGDKVHNHTSMEINGQTHNTWIVVVVFNGKVRMIIVDVI” returned a protease stability score of 1.29.

Take “DERHEDIKKFMELVLRLAKTGDEDHFSNMVDPHARLEIGDKHYIGRELVSTLFHEIRLHDMKIHNIISYGDKVKADVRLDIEFDGRRWNINTLLIIHKVNGQWLLESERRH”: the protease stability score turned out to be 1.14. Next, “DERHEHAKEYLEMWLHSIFTGDERTLMELVDPNAKHLVNGRERHGRDELSRILIHIRMHVRDSKLRDMRVVGDKAIIHTEVDEELHFNGRTVRMIVEVEIYLFKVNGKWVFTEIRII”: 1.29; “DERHEHTHELMRLLIEAFVTGDERLSEELADPHTRLHVNGVHNWGRERFVEVVRRLWSQVKNAKWTLRDFHVQGDKNEVVGDVHVDGQTIHVRFIFFVFNGRLESEEIRVH”: 2.4; “DERHEHVREMSHRMEEWFETGDEDKWVKNADPNVITDINGQKLHGRENAARFLLHYHNRFKGMRFDIEDVDIQGEKVHIHSVQHFDGVKFDVRLIFEVFDGVIKSMHVEVK”: 0.706. In the case of “DERHEKAERVTRELIKLLITGDEDLLDDLIDPNARIEIGDKVTHGRDKFSREISEMGVDHVELKEIHVYGDKAIIKGKLDINGKRNKFILIMEKINGRWFLRSMRVEDH”, the protease stability score was determined as 1.32. As for “DERHELTRRVAVLWLHIFMTGDEDLFEKLADPTTRQEVLFNGRIYSLVGREEVSRWLREMVHELRFRHIEDKDKEIQGDKVLIDGILHIEAENHSTTIRSRIVLIVVNGKIHTIKFEFH”, the protease stability score amounted to 1.55. Next, “DERHETEERFLRTLIHSHMTGDEESHFEMMDPHAKLIYNGKEIHGMEVLRKELEEWRKKLGANHSHITIDHVELQGNKAHFDVTIDLIVDGRVIRTRIHIDIEKVDGRWIITRVIVK”: 0.489; “DERHHRVKHWVHRFVHAWITGDERELRELLDPNVRLNFEFDGRREENVGRRDVDRFIHEILEKYKNVTIIFRDFEIVGDKFHLHTELIIGDKKHRIHIEINVINGQHEWIKIHIE”: 1.66.

For “DERHKHDIEVAKEFLEVERTGDEHLLRRLADPHVLSNINGVHNHGRETVIEFWREWFEEWRVTEIKIRHLDAYDGRVRIEGRMRVIYDGREHTIDSEFRLVVVNGRLKSMELILH”, the protease stability score is -0.043. “DERHKMIKDFAHLMLRARKTGDWDVMTRLFDPNTRVTQGDFELHGMESFSDWLHELHRQVPNVVEHDHSVDAFDGRVHLKTEERINGRILRIRIIIIVVDGKIKELRIEVD” returned a protease stability score of 1.37.
